Results reported in paper PMC5452337.

Columns and labels:
Assay in all cases: co-IP; lysates of CHO GABABR1b/R2 cells transiently expressing KCC2-GFP constructs or GFP, CHAPS buffer; anti-GFP as the precipitating antibody; blots probed for GABABR1 (quantified against FL-KCC2 = 100%) or transferrin receptor
[1] = biological target: KCC2 deletion mutant NTD + TMD fused to GFP (rat)
[2] = biological target: KCC2 deletion mutant TMD + CTD fused to GFP (rat)
[3] = biological target: KCC2 transmembrane domain (TMD) fused to GFP (rat)
KCC2 transmembrane domain (TMD) fused to GFP (rat), sequence (Q63633 97-640): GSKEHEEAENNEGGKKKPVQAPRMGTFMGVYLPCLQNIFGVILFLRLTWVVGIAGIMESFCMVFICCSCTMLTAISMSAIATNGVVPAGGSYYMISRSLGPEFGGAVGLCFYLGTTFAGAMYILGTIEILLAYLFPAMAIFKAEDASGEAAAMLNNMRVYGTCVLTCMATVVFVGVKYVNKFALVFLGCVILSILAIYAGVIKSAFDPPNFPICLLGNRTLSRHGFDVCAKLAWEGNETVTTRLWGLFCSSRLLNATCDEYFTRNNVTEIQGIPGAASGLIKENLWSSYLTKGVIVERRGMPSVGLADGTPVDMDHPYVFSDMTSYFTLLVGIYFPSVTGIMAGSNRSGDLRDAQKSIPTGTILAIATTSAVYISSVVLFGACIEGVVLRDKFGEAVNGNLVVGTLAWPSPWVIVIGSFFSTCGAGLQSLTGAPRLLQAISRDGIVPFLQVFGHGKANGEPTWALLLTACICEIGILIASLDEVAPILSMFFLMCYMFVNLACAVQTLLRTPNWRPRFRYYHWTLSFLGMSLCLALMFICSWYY

KCC2 deletion mutant NTD + TMD fused to GFP (rat), sequence (Q63633 1-640, stated change not applied): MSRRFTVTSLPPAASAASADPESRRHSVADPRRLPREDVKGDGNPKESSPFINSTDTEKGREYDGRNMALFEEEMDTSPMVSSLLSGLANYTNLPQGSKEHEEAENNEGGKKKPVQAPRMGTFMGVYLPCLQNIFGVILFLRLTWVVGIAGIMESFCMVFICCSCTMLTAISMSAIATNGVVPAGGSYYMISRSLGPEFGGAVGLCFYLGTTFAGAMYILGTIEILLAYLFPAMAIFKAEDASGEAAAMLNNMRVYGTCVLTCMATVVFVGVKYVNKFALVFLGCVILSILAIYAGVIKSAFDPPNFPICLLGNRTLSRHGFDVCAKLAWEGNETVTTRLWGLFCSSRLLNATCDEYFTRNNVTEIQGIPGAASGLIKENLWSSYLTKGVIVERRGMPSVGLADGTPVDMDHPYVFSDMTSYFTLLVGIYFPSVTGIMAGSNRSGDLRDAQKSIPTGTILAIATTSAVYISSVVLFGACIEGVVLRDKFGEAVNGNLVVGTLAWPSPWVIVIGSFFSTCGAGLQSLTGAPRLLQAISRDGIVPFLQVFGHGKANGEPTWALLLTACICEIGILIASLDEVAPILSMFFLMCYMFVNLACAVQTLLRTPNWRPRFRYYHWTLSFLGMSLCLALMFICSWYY
KCC2 deletion mutant TMD + CTD fused to GFP (rat), sequence (Q63633 whole entry, stated change not applied, the tested form may be a part): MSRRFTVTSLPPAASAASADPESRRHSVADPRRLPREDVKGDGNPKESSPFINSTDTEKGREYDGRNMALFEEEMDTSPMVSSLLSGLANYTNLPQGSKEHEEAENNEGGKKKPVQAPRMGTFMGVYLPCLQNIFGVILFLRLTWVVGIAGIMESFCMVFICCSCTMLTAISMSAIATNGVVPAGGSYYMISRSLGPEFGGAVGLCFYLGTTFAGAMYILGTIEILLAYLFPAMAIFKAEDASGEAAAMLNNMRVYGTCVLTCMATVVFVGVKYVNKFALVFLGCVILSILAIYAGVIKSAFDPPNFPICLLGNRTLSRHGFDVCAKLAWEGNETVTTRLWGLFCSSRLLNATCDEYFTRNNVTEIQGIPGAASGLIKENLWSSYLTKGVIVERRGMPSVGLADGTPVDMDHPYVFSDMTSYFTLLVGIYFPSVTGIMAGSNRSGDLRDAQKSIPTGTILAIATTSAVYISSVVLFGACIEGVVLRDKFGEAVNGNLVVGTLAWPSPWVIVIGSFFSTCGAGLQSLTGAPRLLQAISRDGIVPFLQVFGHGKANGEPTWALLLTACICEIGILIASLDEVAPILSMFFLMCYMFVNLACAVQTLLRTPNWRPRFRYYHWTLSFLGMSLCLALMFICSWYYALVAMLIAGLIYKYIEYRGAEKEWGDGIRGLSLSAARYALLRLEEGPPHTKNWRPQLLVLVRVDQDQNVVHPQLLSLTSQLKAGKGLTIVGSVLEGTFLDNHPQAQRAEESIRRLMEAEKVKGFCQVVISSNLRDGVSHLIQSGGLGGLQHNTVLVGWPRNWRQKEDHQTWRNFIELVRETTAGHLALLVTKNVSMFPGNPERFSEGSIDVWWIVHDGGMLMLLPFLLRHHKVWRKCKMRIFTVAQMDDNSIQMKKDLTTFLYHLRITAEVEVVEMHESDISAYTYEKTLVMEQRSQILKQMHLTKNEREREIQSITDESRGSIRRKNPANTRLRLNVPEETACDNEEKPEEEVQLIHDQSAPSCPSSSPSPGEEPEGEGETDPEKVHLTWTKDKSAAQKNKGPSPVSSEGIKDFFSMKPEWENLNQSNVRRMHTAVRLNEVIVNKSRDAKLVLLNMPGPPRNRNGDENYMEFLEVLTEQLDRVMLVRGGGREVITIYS

Question: With “GABAB receptor of rat GABABR1b and GABABR2, stably expressed in CHO cells (from UniProt Q9Z0U4-2 20-960; O88871 41-940) (complex)” as the substance, how does the relative amount of GABABR detected after isolation with the GFP antibody (FL-KCC2 = 100%) [1] read?
Answer: 68 % of FL-KCC2

Question: And the relative amount of GABABR detected after isolation with the GFP antibody (FL-KCC2 = 100%) [2]?
Answer: 36 % of FL-KCC2

Question: What about the relative amount of GABABR detected after isolation with the GFP antibody (FL-KCC2 = 100%) [3] of the same substance?
Answer: 76 % of FL-KCC2
